# Laboratory results published in paper PMC7392197 (Journal of the American Chemical Society, 2020).
# B1: His6-MBP-UvrC fusion protein (holo form, with [4Fe4S] cluster) (enzyme, E. coli, UniProt P0A8G0 1-610, looked up)
# chain: MSDQFDAKAFLKTVTSQPGVYRMYDAGGTVIYVGKAKDLKKRLSSYFRSNLASRKTEALVAQIQQIDVTVTHTETEALLLEHNYIKLYQPRYNVLLRDDKSYPFIFLSGDTHPRLAMHRGAKHAKGEYFGPFPNGYAVRETLALLQKIFPIRQCENSVYRNRSRPCLQYQIGRCLGPCVEGLVSEEEYAQQVEYVRLFLSGKDDQVLTQLISRMETASQNLEFEEAARIRDQIQAVRRVTEKQFVSNTGDDLDVIGVAFDAGMACVHVLFIRQGKVLGSRSYFPKVPGGTELSEVVETFVGQFYLQGSQMRTLPGEILLDFNLSDKTLLADSLSELAGRKINVQTKPRGDRARYLKLARTNAATALTSKLSQQSTVHQRLTALASVLKLPEVKRMECFDISHTMGEQTVASCVVFDANGPLRAEYRRYNITGITPGDDYAAMNQVLRRRYGKAIDDSKIPDVILIDGGKGQLAQAKNVFAELDVSWDKNHPLLLGVAKGADRKAGLETLFFEPEGEGFSLPPDSPALHVIQHIRDESHDHAIGGHRKKRAKVKNTSSLETIEGVGPKRRQMLLKYMGGLQGLRNASVEEIAKVPGISQGLAEKIFWSLKH
# Molecular target: the molecule itself
# Assay: SEC
protein,measurement,value
B1,stoichiometry N,2
